Measured values from patent publication US20200123233A1 (published 2020).

Legend:
[1] = target: T1, Glycoprotein G of rabies virus strain CVS-11 (Challenge Virus Standard-11, ATCC VR 959) (rabies virus, strain CVS-11); assay: cell-based or functional assay
T1 chain: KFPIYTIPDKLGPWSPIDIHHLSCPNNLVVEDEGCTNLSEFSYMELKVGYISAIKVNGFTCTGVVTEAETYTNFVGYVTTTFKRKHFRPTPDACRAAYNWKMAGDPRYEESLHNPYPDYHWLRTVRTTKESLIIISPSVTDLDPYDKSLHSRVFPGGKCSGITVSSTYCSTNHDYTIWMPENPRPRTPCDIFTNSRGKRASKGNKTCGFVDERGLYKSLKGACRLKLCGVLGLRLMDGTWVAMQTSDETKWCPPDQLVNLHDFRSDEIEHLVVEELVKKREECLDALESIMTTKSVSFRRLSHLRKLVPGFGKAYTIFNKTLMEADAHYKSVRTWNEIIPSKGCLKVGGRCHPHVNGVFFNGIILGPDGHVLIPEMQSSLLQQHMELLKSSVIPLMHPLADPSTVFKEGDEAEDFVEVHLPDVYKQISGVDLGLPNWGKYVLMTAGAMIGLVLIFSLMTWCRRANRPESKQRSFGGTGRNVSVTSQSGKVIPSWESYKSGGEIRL

[2] = target: T2, FTM-NN protein (membrane anchorless form of the Long fusion protein, 70 kDa) (human respiratory syncytial virus, …, UniProt P12568 26-524); assay: SPR (Biacore), FTM-NN immobilised
T2 construct: domain: membrane anchorless form of the fusion protein

F protein of RSV B-1 = F protein of RSV B-1 (human respiratory syncytial virus, …, UniProt P13843 26-574); assay: cell-based or functional assay
F protein of RSV A-2 = F protein of RSV A-2 (human respiratory syncytial virus, …, UniProt P03420 26-574); assay: cell-based or functional assay
[3] = target: F protein of RSV Long (RSV LONG M-2) (human respiratory syncytial virus, …, UniProt P12568 26-574); assay: cell-based or functional assay
[4] = target: T2, FTM-NN protein (membrane anchorless …); assay: competition ELISA on coated FTM-NN; competitor biotinylated Synagis Fab
[5] = target: hRSV (inactivated hRSV strain Long, Hytest #8RSV79), F protein on virus particles (human respiratory syncytial virus, …, UniProt P12568 26-574); assay: binding ELISA on coated hRSV (Hytest), anti-VHH detection
[6] = target: authentic influenza antigen of A/PR/8/34 (ATCC VR-1469), serotype H1N1 (influenza A virus A/PR/8/34 (H1N1), UniProt P03452 18-565); assay: ELISA, coated authentic AIV antigen, E. coli culture supernatant, anti-c-myc-HRP

B1: 213H7-15GS-214 F8 (VHH)
chain: EVQLVESGGGLVQAGGSLRLSCAASGRTLSSYRMGWFRQAPGKEREFISTISWNGRSTYYADSVKGRFIFSEDNAKNTVYLQMNSLKPEDTAVYYCAAALIGGYYSDVDAWSYWGPGTQVTVSSGGGGSGGGGSGGGGSEVQLVESGGDLVQAGGSLRLSCVASGSTYSINAMGWYRQAPGKLRELVAAFRTGGSTDYADSVKGRFTISRDTAKNTVYLQMNSLKPEDTAVYYCNAEVIYYPYDYWGQGTQVTVSS
In the case of B1, the “CVS neutralizing antibody titre, nM IC50 (RFFIT)” value [1] is reported as 0.33 nM and the “Potency (IU/nM) increase versus monovalent (RFFIT)” value [1] is reported as 271 fold.

B2: RSVPMP7B2 (VHH)
VHH: EVQLVESGGGLVQAGDSLRLSCAASGRTFSSYAMGWFRQAPGKEREFVAAISWSDGSTYYADSVKGRFTISRDNAKNTVYLQMNSLKPEDTAVYYCAADLTSTNPGSYIYIWAYDYWGQGTQVTVSS
B2 showed a Kd [2] of 1.1 nM, a koff [2] of 0.00065 s⁻¹ and a kon [2] of 570000 M⁻¹ s⁻¹. For the same binder, the “RSV neutralization IC50 (nM) (n = 2), B1” value (F protein of RSV B-1) was 2690 nM, the “RSV neutralization IC50 (nM) (n = 2), A-2” value (F protein of RSV A-2) was 177 nM and the “RSV neutralization IC50 (nM) (n = 2), Long” value [3] was 91 nM. It also gave an EC50 [4] of 1.9 nM and an EC50 [5] of 0.09 nM.

B3: IV2 (VHH)
VHH: QVQLQESGGGLVQTGGSLRLSCAASGRTFGGYAMAWFRQAPRKGREFVASVTWNGGATDYAGSVKDRFTVSRDTANNTMYLQMNSLKPEDTAVYICGAASGYRSTDRLSDPGWTNYWGQGTQVTVSS
In the case of B3, the “Extinction at 450 nm in ELISA” value [6] is reported as 0.048 extinction at 450 nm.

B4: IV10 (VHH)
VHH: QVQLQESGGGLVQAGGSLRLSCATSGRPFGGYAMAWFRQAPGKGREFVAAVTWSAGTTNYAGSVKDRFTVSRDNANNTMYLQMNSLKPEDTAVYICGAATGYRSTDRLSDPNWVNYWGQGTQVTVSS
With B4 the “Extinction at 450 nm in ELISA” value [6] was 0.047 extinction at 450 nm.

B5: IV7 (VHH)
VHH: QVQLQQSGGGLVQTGGSLRLSCAASGRTFGGYAMAWFRQAPGKGREFVAAVTWSAGTTNYAGSVKDRFTVSRDNANNTMYLQMNSLKPEDTAVYICGAASGYRSTDRLSEPAWINYWGQGTQVTVSS
For B5, the “Extinction at 450 nm in ELISA” value [6] was 0.048 extinction at 450 nm.

B6: LG191E4 (VHH)
VHH: EVQLVESGGGLVQAGGSLRLSCAASGPTFSADTMGWFRQAPGKEREFVATIPWSGGIAYYSDSVKGRFTMSRDNAKNTVDLQMNSLKPEDTALYYCAGSSRIYIYSDSLSERSYDYWGQGTQVTVSS
For B6, the Kd [2] was 0.27 nM, the koff [2] was 0.00015 s⁻¹ and the kon [2] was 570000 M⁻¹ s⁻¹. For the same binder, the “RSV neutralization IC50 (nM) (n = 2), B1” value (F protein of RSV B-1) was 4330 nM and the EC50 [5] was 0.083 nM.

B7: RSVPMP15H8 (VHH)
VHH: EVQLVESGGGLVQAGGSLRLSCAASGRSFSNYVLGWFRQAPGKEREFVAAISFRGDSAIGAPSVEGRFTISRDNAKNTGYLQMNSLVPDDTAVYYCGAGTPLNPGAYIYDWSYDYWGRGTQVTVSS
For B7, the Kd [2] was 16 nM, the koff [2] was 0.021 s⁻¹ and the kon [2] was 1.2e+06 M⁻¹ s⁻¹. The “RSV neutralization IC50 (nM) (n = 2), B1” value (F protein of RSV B-1) was 2340 nM, the “RSV neutralization IC50 (nM) (n = 2), A-2” value (F protein of RSV A-2) was 218 nM and the “RSV neutralization IC50 (nM) (n = 2), Long” value [3] was 200 nM. The EC50 [4] was 39 nM and the EC50 [5] was 0.83 nM.

B8: RSVNC41 (VHH)
VHH: EVQLVESGGGLVQAGGSLSISCAASGGSLSNYVLGWFRQAPGKEREFVAAINWRGDITIGPPNVEGRFTISRDNAKNTGYLQMNSLAPDDTAVYYCGAGTPLNPGAYIYDWSYDYWGRGTQVTVSS
Work on B8 yielded a Kd [2] of 8.1 nM, a koff [2] of 0.0067 s⁻¹ and a kon [2] of 820000 M⁻¹ s⁻¹. The EC50 [4] was 32 nM and the EC50 [5] was 0.41 nM.

B9: RSVPMP15B3 (VHH)
VHH: EVQLVESGGGLVQPGGSLRLSCAASGLTLDYYALGWFRQAPGKEREGVSCISSSDHSTTYTDSVKGRFTISWDNAKNTLYLQMNSLKPGDTAVYYCAADPALGCYSGSYYPRYDYWGQGTQVTVSS
B9 gave a Kd [2] of 0.67 nM, a koff [2] of 0.00027 s⁻¹ and a kon [2] of 410000 M⁻¹ s⁻¹. For the same binder, the “RSV neutralization IC50 (nM) (n = 2), B1” value (F protein of RSV B-1) was 1270 nM and the EC50 [5] was 0.058 nM.

B10: RSVNC23 (VHH)
VHH: EVQLVESGGGLVQPGGSLRLSCAASGRTFSSIAMGWFRQAPGKEREFVAAISWSRGRTFYADSVKGRFIISRDDAANTAYLQMNSLKPEDTAVYYCAVDTASWNSGSFIYDWAYDHWGQGTQVTVSS
B10 showed a Kd [2] of 0.92 nM, a koff [2] of 0.00074 s⁻¹ and a kon [2] of 800000 M⁻¹ s⁻¹. The “RSV neutralization IC50 (nM) (n = 2), A-2” value (F protein of RSV A-2) was 109 nM, the “RSV neutralization IC50 (nM) (n = 2), Long” value [3] was 144 nM and the EC50 [4] was 2.3 nM. For the same binder, the EC50 [5] was 0.1 nM.

B11: LG191D3 (VHH)
VHH: EVQLVESGGGLVQAGGSLRLSCEASGRTYSRYGMGWFRQAPGKEREFVAAVSRLSGPRTVYADSVKGRFTISRDNAENTVYLQMNSLKPEDTAVYTCAAELTNRNSGAYYYAWAYDYWGQGTQVTVSS
With B11 the Kd [2] was 1.9 nM, the koff [2] was 0.0028 s⁻¹ and the kon [2] was 1.5e+06 M⁻¹ s⁻¹. The “RSV neutralization IC50 (nM) (n = 2), A-2” value (F protein of RSV A-2) was 227 nM, the “RSV neutralization IC50 (nM) (n = 2), Long” value [3] was 253 nM and the EC50 [4] was 5.9 nM. For the same binder, the EC50 [5] was 0.15 nM.
